Test results taken from patent publication US20230265179A1 (TWIST BIOSCIENCE, published 2023).

T1: IL1RL2 over-expressed on Expi293 cells (UniProt Q9HB29 20-575, limits assumed)
T1 construct: whole, on cells; Target of the flow cytometry assay; MFI ratio is over-expressing cells over parent cells
T1 sequence (looked up): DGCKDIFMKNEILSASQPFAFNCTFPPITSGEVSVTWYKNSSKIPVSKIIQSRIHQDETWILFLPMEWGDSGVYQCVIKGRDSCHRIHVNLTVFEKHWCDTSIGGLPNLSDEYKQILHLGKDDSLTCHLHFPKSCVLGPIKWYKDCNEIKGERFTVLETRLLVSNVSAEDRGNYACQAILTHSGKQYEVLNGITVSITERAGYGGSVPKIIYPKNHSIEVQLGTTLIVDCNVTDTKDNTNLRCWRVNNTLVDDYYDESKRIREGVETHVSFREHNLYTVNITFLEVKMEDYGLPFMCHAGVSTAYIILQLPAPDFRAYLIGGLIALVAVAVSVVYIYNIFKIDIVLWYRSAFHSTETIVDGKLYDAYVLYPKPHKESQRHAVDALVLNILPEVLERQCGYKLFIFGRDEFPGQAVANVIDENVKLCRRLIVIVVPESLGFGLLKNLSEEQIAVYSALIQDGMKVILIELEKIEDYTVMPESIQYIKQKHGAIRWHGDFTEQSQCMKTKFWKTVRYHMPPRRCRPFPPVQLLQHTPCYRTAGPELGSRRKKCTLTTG

T2: IL1RL2 (UniProt Q9HB29 20-335, limits assumed)
T2 construct: Soluble analyte of the SPR runs
T2 sequence (looked up): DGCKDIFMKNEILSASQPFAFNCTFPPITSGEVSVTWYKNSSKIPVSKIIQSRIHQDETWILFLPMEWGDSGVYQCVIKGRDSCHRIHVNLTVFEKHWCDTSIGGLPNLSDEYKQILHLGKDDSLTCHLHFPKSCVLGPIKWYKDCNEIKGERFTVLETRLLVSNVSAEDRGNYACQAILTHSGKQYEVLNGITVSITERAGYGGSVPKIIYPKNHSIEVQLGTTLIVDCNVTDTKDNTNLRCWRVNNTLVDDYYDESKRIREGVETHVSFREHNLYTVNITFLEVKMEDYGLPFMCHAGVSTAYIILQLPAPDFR

T3: IL1RL1 (UniProt Q01638 19-556, limits assumed)
T3 construct: whole, on cells; The flow cytometry used 'cytokine over-expressing Expi293 cells' against Expi293 parent cells
T3 sequence (looked up): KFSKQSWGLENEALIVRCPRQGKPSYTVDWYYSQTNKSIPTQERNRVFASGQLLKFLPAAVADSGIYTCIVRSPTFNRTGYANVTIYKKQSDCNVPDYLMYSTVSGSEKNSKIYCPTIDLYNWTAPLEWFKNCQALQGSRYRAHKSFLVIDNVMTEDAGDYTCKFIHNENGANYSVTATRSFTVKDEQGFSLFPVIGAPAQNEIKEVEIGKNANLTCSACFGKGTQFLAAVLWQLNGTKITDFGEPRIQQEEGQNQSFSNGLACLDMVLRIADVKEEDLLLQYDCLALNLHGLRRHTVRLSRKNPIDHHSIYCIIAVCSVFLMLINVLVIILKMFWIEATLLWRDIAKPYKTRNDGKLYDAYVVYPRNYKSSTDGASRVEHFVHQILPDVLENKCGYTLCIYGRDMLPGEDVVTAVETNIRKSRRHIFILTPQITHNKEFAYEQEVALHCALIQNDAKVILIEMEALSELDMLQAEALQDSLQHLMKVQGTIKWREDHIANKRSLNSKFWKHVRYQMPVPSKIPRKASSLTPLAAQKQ

B1: IL1RL2-302 (antibody, V domains shown)
VH: EVQLLESGGGLVQPGGSLRLSCAASGFPLSSYAMSWVRQAPGKGLEWVSLISGSGVSTYYADSVKGRFTISRDNSKNTLYLQMNSLRAEDTAVYYCARGWGAAEEWGQGTLVTVSS
VL: DIQMTQSPSSLSASVGDRVTITCRASQRISNYLHWYQQKPGKAPKLLIYAASRLHSGVPSRFSGSGSGTDFTLTISSLQPEDFATYYCQQSHTIPYTFGQGTKVEIK
notes: IgG2
B2: IL1RL2-35 (VHH)
VHH: EVQLVESGGGLVQPGGSLRLSCAASGRTFSTYDMGWFRQAPGKEREFVAAISWSGGSTNYADSVKGRFTISADNSKNTAYLQMNSLKPEDTAVYYCADVNGDWGQGTLVTVSS
notes: VHH-Fc based on IgG2 Fc
B3: IL1RL2-27 (VHH)
VHH: EVQLVESGGGLVQPGGSLRLSCAASGGRFSTYDMGWFRQAPGKEREFVASIVWIGGRTYYADSVKGRFTISADNSKNTAYLQMNSLKPEDTAVYYCADVNGDWGQGTLVTVSS
notes: VHH-Fc based on IgG2 Fc
B4: IL1RL2-20 (VHH)
VHH: EVQLVESGGGLVQPGGSLRLSCAASGRTGSTYDMGWFRQAPGKERELVAAISWRGGSTYYADSVKGRFTISADNSKNTAYLQMNSLKPEDTAVYYCADVNGDWGQGTLVTVSS
notes: VHH-Fc based on IgG2 Fc
B5: IL1RL1-381 (antibody, V domains shown)
VH: EVQLLESGGGLVQPGGSLRLSCAASGFTSSNYAMTWVRQAPGKGLEWVSSIIGSGGGTYYADSVKGRFTISRDNSKNTLYLQMNSLRAEDTAVYYCARGIPRRKKGAGLFDYWGQGTLVTVSS
VL: DIQMTQSPSSLSASVGDRVTITCRASHSISSHLNWYQQKPGKAPKLLIYGASRLQRGVPSRFSGSGSGTDFTLTISSLQPEDFATYYCQQNYNTPFTFGGGTKVEIK
B6: IL1RL1-388 (antibody, V domains shown)
VH: EVQLLESGGGLVQPGGSLRLSCAASGFTFSRFAMSWVRQAPGKGLEWVSGISGSSGNTYYADSVKGRFTISRDNSKNTLYLQMNSLRAEDTAVYYCAREKRLPIRRRSGEPLGNYFDYWGQGTLVTVSS
VL: DIQMTQSPSSLSASVGDRVTITCRTSQSIRKYLNWYQQKPGKAPKLLIYASSRLQSGVPSRFSGSGSGTDFTLTISSLQPEDFATYYCQQNYRTPFTFGGGTKVEIK
B7: IL1RL1-377 (antibody, V domains shown)
VH: EVQLLESGGGLVRPGGSLRLSCAASGFTFRNFAMSWVRQAPGKGLEWVSSISGSGDTTYYADSVKGRFTISRDNSKNTLYLQMNSLRAEDTAVYYCARHKRGRVAVAFPMDVWGQGTLVTVSS
VL: DIQMTQSPSSLSASVGDRVTITCRASQNIGRYLNWYQQKPGKAPKLLIYGASTLQRGVPSRFSGSGSGTDFTLTISSLQPEDFATYYCQQSYSAPTFGGGTKVEIK
B8: IL1RL1-387 (antibody, V domains shown)
VH: EVQLLESGGGLVQPGGSLRLSCAASGFTFNRYAMNWVRQAPGKGLEWVSTISASGGRTYYADSVKGRFTISRDNSKNTLYLQMNSLRAEDTAVYYCARGSLRLDTWGQGTLVTVSS
VL: DIQMTQSPSSLSASVGDRVTITCRASQNIASYLNWYQQKPGKAPKLLIYGASRLQSGVPSRFSGSGSGTDFTLTISSLQPEDFATYYCQQSSTPRTFGGGTKVEIK
B9: IL1RL1-375 (antibody, V domains shown)
VH: EVQLLESGGGLVQPGGSLRLSCAASGFAFSSYAMSWVRQAPGKGLELVSAISGSGDTSYYADSVKGRFTISRDNSKNTLYLQMNSLRAEDTAVYYCARVRRWSNFDYWGQGTLVTVSS
VL: DIQMTQSPSSLSASVGDRVTITCRASQSISRYLSWYQQKPGKAPKLLIYAGSKLQRGVPSRFSGSGSGTDFTLTISSLQPEDFATYYCQQTYSTPIAFGGGTKVEIK
B10: IL1RL1-380 (antibody, V domains shown)
VH: EVQLLESGGGLVQPGGPLRLSCAASGFSFSKFAMSWVRQAPGKGLEWVSGISGSGGNTYYADSVKGRFTISRDNSKNTLYLQMNSLRAEDTAVYYCVKGSRGSYRSSTLGPFKHWGQGTLVTVSS
VL: DIQMTQSPSSLSASVGDRVTITCRTSQSISTYLNWYQQKPGKAPKLLIYAASRLQNGVPSRFSGSGSGTDFTLTISSLQPEDFATYYCQQSYSVPGTFGGGTKVEIK
B11: IL1RL2-12 (VHH)
VHH: EVQLVESGGGLVQPGGSLRLSCAASGPMSSSAVMGWFRQAPGKEREFVAVVTRWSGARTVYADSVKGRFTISADNSKNTAYLQMNSLKPEDTAVYYCAVSQPLNYYTYYDPRRYDWGQGTLVTVSS
notes: VHH-Fc based on IgG2 Fc
B12: IL1RL2-22 (VHH)
VHH: EVQLVESGGGLVQPGGSLRLSCAASGRTFGSYAMGWFRQAPGKEREFVAAINWSGARTYYADSVKGRFTISADNSKNTAYLQMNSLKPEDTAVYYCAVSQPLNYYTYYDARRYDWGQGTLVTVSS
notes: VHH-Fc based on IgG2 Fc
B13: IL1RL2-17 (VHH)
VHH: EVQLVESGGGLVQPGGSLRLSCAASGRTFSTYDMGWFRQAPGKERELVASITFGGDTNYADSVKGRFTISADNSKNTAYLQMNSLKPEDTAVYYCADVNGDWGQGTLVTVSS
notes: VHH-Fc based on IgG2 Fc
B14: IL1RL2-15 (VHH)
VHH: EVQLVESGGGLVQPGGSLRLSCAASGRTFSTYDMGWFRQAPGKEREFVAVINYRGSTTYADSVKGRFTISADNSKNTAYLQMNSLKPEDTAVYYCADVNGDWGQGTLVTVSS
notes: VHH-Fc based on IgG2 Fc
B15: IL1RL2-5 (VHH)
VHH: EVQLVESGGGLVQPGGSLRLSCAASGRTFDSYDMGWFRQAPGKERELVASITYLGRTNYADSVKGRFTISADNSKNTAYLQMNSLKPEDTAVYYCADVNGDWGQGTLVTVSS
notes: VHH-Fc based on IgG2 Fc
B16: IL1RL1-385 (antibody, V domains shown)
VH: EVQLLESGGGLVQPGGSLRLSCAASGFTFNTFAMSWVRQAPGKGLELVSAISGSGGNTYYVDSVKGRFTISRDNSKNTLYLQMNSLRAEDTAVYYCARLGSGSSSSIDYWGQGTLVTVSS
VL: DIQMTQSPSSLSASVGDRVTITCRASQYISTFLNWYQQKPGKAPKLLIYAASRLQDGVPSRFSGSGSGTDFTLTISSLQPEDFATYYCQQSYGSSWTFGGGTKVEIK

Key:
[1] = molecular target: T1, IL1RL2 over-expressed on Expi293 cells; assay: flow cytometry, over-expressing Expi293 vs parent cells, 100 nM antibody;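 note: ratio is mean fluorescence intensity on over-expressing Expi293 cells divided by that measured on parental Expi293 cells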
Procedure: (§1) All incubations and washes were in buffer containing PBS+1% BSA. MFI Ratio is defined by the mean fluorescence intensity (MFI) of the cytokine over-expressing Expi293 cell over the Expi293 parent cell. […] EC50 was calculated in GraphPad Prism.

[2] = molecular target: T1, IL1RL2 over-expressed on Expi293 cells; assay: flow cytometry titration on over-expressing Expi293 cells
Procedure: as §1

[3] = molecular target: T2, IL1RL2; assay: SPR (Carterra LSA), antibody immobilised, 1:1 model
Procedure: SPR experiments were performed on a Carterra LSA SPR biosensor equipped with a HC30M chip at 25° C. in HBS-TE. Antibodies were diluted to 10 μg/mL and amine-coupled to the sensor chip by EDC/NHS activation, followed by ethanolamine HCl quenching. Increasing concentrations of analyte were flowed over the sensor chip in HBS-TE with 0.5 mg/mL BSA with 5-minute association and 15-minute dissociation. Following each injection cycle the surface was regenerated with 2× 30-second injections of IgG elution buffer (Thermo). Data were analyzed in Carterra's Kinetics Tool software with 1:1 binding model.

[4] = molecular target: T3, IL1RL1; assay: flow cytometry, 100 nM IgG on IL1RL1 over-expressing Expi293 cells; MFI over that of Expi293 parent cells
Procedure: as §1

| Binder | 100 nM FACS (MFI Ratio) [1] | EC50 [2] [nM] | Kd [3] [nM] | koff [3] [s⁻¹] | kon [3] [M⁻¹ s⁻¹] | 100 nM FACS (MFI Ratio) [4] [MFI ratio] |
| --- | --- | --- | --- | --- | --- | --- |
| B1 | 192 | 1.1 | – | – | – | – |
| B2 | 15.6 | 0.508 | 4.74 | 0.000593 | 125000 | – |
| B3 | 14 | 64.2 | 1.32 | 0.000143 | 108000 | – |
| B4 | 11.6 | 9.03 | 3.28 | 0.000363 | 111000 | – |
| B5 | – | – | – | – | – | 0.85 |
| B6 | – | – | – | – | – | 0.73 |
| B7 | – | – | – | – | – | 1.21 |
| B8 | – | – | – | – | – | 1.06 |
| B9 | – | – | – | – | – | 11.3 |
| B10 | – | – | – | – | – | 0.6 |
| B11 | 33.8 | 0.528 | 12.1 | 0.000485 | 40200 | – |
| B12 | 15.4 | 3.02 | 3.59 | 0.000126 | 35000 | – |
| B13 | 15.6 | 11.2 | 1.45 | 0.00024 | 166000 | – |
| B14 | 14.4 | 0.622 | 4.13 | 0.000218 | 52700 | – |
| B15 | 13.9 | 13.4 | 2.72 | 0.000343 | 126000 | – |
| B16 | – | – | – | – | – | 7.61 |
